In this experiment the target is GST-tagged Gcn4 (transcription factor Gcn4) (S. cerevisiae, UniProt P03069 1-281). In words: pull-down.
GST-tagged Gcn4 (transcription factor Gcn4), sequence (P03069 whole entry): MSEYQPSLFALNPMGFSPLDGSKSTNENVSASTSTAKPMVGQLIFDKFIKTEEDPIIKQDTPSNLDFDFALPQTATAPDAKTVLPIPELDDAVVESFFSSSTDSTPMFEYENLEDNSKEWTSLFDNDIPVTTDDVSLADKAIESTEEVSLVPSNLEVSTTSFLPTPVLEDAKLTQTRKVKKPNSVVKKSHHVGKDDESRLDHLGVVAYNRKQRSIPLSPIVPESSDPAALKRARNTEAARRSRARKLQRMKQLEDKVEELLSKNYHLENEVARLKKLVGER

B1: His-tagged Rpb9 (RNA polymerase II subunit Rpb9) (natural protein, S. cerevisiae, UniProt P27999 1-122, looked up)
chain: MTTFRFCRDCNNMLYPREDKENNRLLFECRTCSYVEEAGSPLVYRHELITNIGETAGVVQDIGSDPTLPRSDRECPKCHSRENVFFQSQQRRKDTSMVLFFVCLSCSHIFTSDQKNKRTQFS
For the molecule B1, the binding result is on record as “binds”.
